Publication doi:10.1101/2024.03.18.585568 (bioRxiv, 2024)

B1: b96.11 Fab (recombinant Fab based on the human APS-2-associated autoantibody b96.11) (Fab, V domains shown)
VH: EVQLVESGGGLVQPGRSLRLSCSASGFTFGDYAMSWFRLAPGKGLEWVGLIKSRAIDGTPQYAASVKGRFTISRDDSNSIAYLQMNSLTTEDTAIYYCARDFYDFWNEFSHRTFDFWGQGTLVTVSS
VL: QSALTQPASASGSPGQSVTITCTGSSSDVGGYKYVSWYQHHPGKAPKLMIYEVSKRPSGVPDRFSGSKSGNMASLTVSGLQAEDEADYYCSSYAGSYNFYVFGNGTKVTVL
B2: b96.11 IgG (purified monoclonal b96.11 IgG antibody) (antibody, V domains shown)
VH: B1 VH
VL: B1 VL

Key:
[1] = target: T1, apoGAD65 (glutamate decarboxylase GAD65, residues 84-585, purified without added PLP) (human, UniProt Q05329); assay: HDX-MS
[2] = target: T1, apoGAD65 (glutamate decarboxylase …); assay: SPR

T1 sequence (Q05329 84-585): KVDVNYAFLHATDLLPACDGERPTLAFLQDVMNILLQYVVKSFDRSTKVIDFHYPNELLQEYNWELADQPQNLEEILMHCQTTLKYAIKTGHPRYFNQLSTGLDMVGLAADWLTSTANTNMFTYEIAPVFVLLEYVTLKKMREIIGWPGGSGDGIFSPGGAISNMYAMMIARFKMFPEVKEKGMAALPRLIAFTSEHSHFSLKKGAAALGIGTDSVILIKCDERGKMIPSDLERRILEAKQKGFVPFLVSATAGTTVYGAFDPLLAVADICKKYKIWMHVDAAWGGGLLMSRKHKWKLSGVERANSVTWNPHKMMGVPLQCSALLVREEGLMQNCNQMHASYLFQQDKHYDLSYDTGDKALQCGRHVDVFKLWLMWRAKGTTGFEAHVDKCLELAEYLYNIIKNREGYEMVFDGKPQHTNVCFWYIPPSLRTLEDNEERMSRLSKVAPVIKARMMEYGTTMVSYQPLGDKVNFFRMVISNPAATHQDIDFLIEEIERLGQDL

| binding result [1] | binding result [2] | Binder |
| --- | --- | --- |
| binds |  | B1 |
|  | binds | B2 |
